Here are results for 84 variants from the RNAGym collection of RNA variant scans (doi:10.1073/pnas.2313332121).

B1: TPR t1 (parent)
chain: GACCAAUCUGCCCUCAGAGCUCGAGAACAUCUUCGGAUGCAGAGGAGGCAGGCUUCGGUGGCGCGAUAGCGCCAACGUCCUCAACCUCCAAUGCAUCCCACCACAUGAUGAUGCCUGAAGAGCCUUGGUUUUUUG

The data set covers variants of B1. Kind of data set: polymerase ribozyme fitness, log enrichment relative to wild type (log ratio); higher = more active; in vitro selection for triplet polymerase activity. In a few lines: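 Mutant libraries of each subunit of a heterodimeric triplet polymerase ribozyme were built by PCR and transcribed. Each library went through one round of in vitro selection in triplicate: annealing with biotinylated primer, partner subunit and triplets, frozen incubation at −7 °C, gel excision of extended constructs, streptavidin-bead capture and RT-PCR. Input and output libraries were Illumina-sequenced; only genotypes with ≥10 input reads and ≥1 read per output were kept. Fitness is log2(genotype enrichment/wild-type enrichment), using inverse-variance-weighted replicate averages.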
Take U96A G117A G120A U130C: the “polymerase ribozyme fitness (log ratio)” value is -3.72.
As for G39A G71U A83U, the “polymerase ribozyme fitness (log ratio)” value was -1.37.
The result for C3U U54C G61A A90C reads -0.844; that for C34U C123G, -1.94.
The result for G71U C102A reads -2.25; that for U33A U116C, -6.14.
C82A A84C G110C: the “polymerase ribozyme fitness (log ratio)” value is -4.7.
The result for A2U C11U C97G G110C C114U G120C reads -6.26; that for A43C G77C, -2.27.
To G71U G135U belongs -1.02; to C53A G63A G93A, -1.34; to C72U C102G U133A, -5.27.
To G52A C79U G120U belongs -0.265; to C28U G45A G52A U116C, -4.51; to C56G U109A, -4.28.
As to G39U C40A C62U, the “polymerase ribozyme fitness (log ratio)” value is -2.99.
The result for G45U C101U G113A reads -2.93; that for C11G C104A U130A, -2.13; that for C8G G60C A66C U131G, -3.98.
To G47A U112G G117A belongs -3.86; to C28G G60U C80U C115U G120C C123A U131A, -6.73; to C3A G39A U54C C70U C104U, -2.33.
To C13G G69U G113A belongs -2.1; to G60C C115A, 0.199; to U78A G117U, -2.81.
With A18C A43U G63A U81A, the “polymerase ribozyme fitness (log ratio)” value was -6.15.
To G113A C123G belongs -0.469; to C8A U14G G61U C123A U131A G135U, 1.21; to C22G A90C U92C G120C, -3.7.
The result for A37U A74U A121C reads 1.55; that for C53U C72G, -0.46.
The result for G45U G110C reads -4.47; that for G44C G69A A91G A103C C115U, -5.28.
Turning to C79U A111U A121U, the “polymerase ribozyme fitness (log ratio)” value was -3.62.
For the variant G63C C80A, the “polymerase ribozyme fitness (log ratio)” value was -3.71.
Regarding C31A C73A, the “polymerase ribozyme fitness (log ratio)” value is -5.35.
To C40U G63C A121C belongs 0.618; to G17C U106A, -4.68; to C15G G52U C76U U96C C99U A111G, -7.38.
To C11A G45U G63U belongs -3.75; to C8G C20U C40G A90U C102U, -6.69; to U21A C70A C86U A111C, -5.59.
Turning to C11G C85G G117A, the “polymerase ribozyme fitness (log ratio)” value is -1.6.
With U106C C114A G120C, the “polymerase ribozyme fitness (log ratio)” value was -2.21.
As to C3A C34A G45C C114U, the “polymerase ribozyme fitness (log ratio)” value is -6.33.
To C62U G122U belongs 0.2; to G60A G69C C80G G110U G120C, -6.82.
The result for G51A G61C reads -3.7.
To C11A C28U G36A U81A C85U G120A belongs -4.25; to A37C G42A A43U C104A, -5.34; to G69C A119G, -0.227.
Regarding G48C C56G C101U U125G, the “polymerase ribozyme fitness (log ratio)” value is -1.87.
The result for C49U C73A U81G reads -2.45; that for C53A C70A, -1.81.
To C13G A111G C115U belongs -4.46; to A5G C34G G69U C82G, -2.92; to C62A A105C, -3.71.
Turning to C12G G47U C64U, the “polymerase ribozyme fitness (log ratio)” value was -1.58.
The result for G69A U81G reads -6.79; that for A43C, -2.17.
The result for C3A C56A G135U reads -2.75; that for C3G U78A, -2.46.
For the variant A27C U112C, the “polymerase ribozyme fitness (log ratio)” value was -1.2.
In the case of G48C C70U C124A, the “polymerase ribozyme fitness (log ratio)” value is 0.758.
To A74C A95U G113U U125A belongs -4.37; to G39A G58A A91U, -2.28.
With C79A G113A, the “polymerase ribozyme fitness (log ratio)” value was -2.27.
Take A43U C49U A75U G113C C123U: the “polymerase ribozyme fitness (log ratio)” value was -3.62.
As for C13U G52C G60A A95G C98U U126G, the “polymerase ribozyme fitness (log ratio)” value is -4.8.
For the variant A5U G69U G110A, the “polymerase ribozyme fitness (log ratio)” value was -0.583.
Take A5U C28U C62G: the “polymerase ribozyme fitness (log ratio)” value was -5.59.
The result for U33C G63U reads -3.43; that for G42A G47U G57U G58U, -3.58.
C15A G36U G42A C49G G60U: the “polymerase ribozyme fitness (log ratio)” value is -6.51.
For the variant A50C A100C, the “polymerase ribozyme fitness (log ratio)” value is -1.68.
Turning to C15G C73G C88U U116G, the “polymerase ribozyme fitness (log ratio)” value is -3.52.
To A43C G120U belongs -2.7; to C56A G120C A121U U131A, -0.425; to U14G A91U A111G, -4.63.
With C76G U109C A119U C123A, the “polymerase ribozyme fitness (log ratio)” value was -6.47.
For the variant C53G C64U A118G C123U, the “polymerase ribozyme fitness (log ratio)” value was -1.6.
For G23A G113C, the “polymerase ribozyme fitness (log ratio)” value is -5.19.
To A24G U55G belongs -1.71; to G10C G63A C80U, -3.07.
